Reference: patent US20240317851A1 (LANOVA MEDICINES, published 2024)
Residue numbers refer to the chain shown, from its start. Like-named read-outs stand apart in the source and are kept apart here.

T1: human Claudin 6 (human, UniProt P56747 1-220)
T1 construct: whole, on cells; also called CLDN6
T1 sequence (looked up): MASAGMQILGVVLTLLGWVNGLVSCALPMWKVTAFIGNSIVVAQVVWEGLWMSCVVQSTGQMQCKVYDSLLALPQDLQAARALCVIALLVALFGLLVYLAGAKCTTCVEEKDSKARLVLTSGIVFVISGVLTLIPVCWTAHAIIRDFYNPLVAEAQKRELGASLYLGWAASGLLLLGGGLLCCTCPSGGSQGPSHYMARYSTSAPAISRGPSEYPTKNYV

T2: human Claudin 9 (human, UniProt O95484 1-217)
T2 construct: whole, on cells; also called CLDN9; CLND9
T2 sequence (looked up): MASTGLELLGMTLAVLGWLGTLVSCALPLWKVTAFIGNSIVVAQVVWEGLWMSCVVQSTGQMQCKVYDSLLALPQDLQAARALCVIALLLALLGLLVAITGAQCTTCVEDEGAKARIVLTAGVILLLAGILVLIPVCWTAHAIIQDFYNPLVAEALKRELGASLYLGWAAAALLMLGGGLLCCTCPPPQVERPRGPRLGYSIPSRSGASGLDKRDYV

T3: human Claudin 3 (human, UniProt O15551 1-220)
T3 construct: whole, on cells; also called CLDN3
T3 sequence (looked up): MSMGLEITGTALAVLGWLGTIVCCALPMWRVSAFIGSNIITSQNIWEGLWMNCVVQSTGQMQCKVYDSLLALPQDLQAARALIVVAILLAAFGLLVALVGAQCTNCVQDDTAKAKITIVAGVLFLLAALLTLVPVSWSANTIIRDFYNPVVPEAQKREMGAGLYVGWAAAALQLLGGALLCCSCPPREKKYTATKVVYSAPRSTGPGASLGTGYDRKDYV

B1: 59-H12C5 (antibody, V domains shown)
VH: EVQLVESGGGLVQPGGSLKLSCAASGFTFSSHGMSWVRQTADRGLELVASINSNGGRTYYPDSMKGRFTISRDNAKNTLYLQLSSLQPEDTALYYCACYYDNTYYAMDYWGQGTSLTVSS
VL: QIVLTQSPAIMSASLGERVTMTCTASSSVSSSSLHWYQQKPGSSPKLWIYTTSTLASGVPARFSGSGSGTSYSLTISSMEAEDAATYYCHQYHRSPPTFGGGTKLEIK
notes: Tested as chimeric antibody
B2: 36-E6A6 (antibody, V domains shown)
VH: QVQLQQSGGEVVRPGTSVKVSCKASGYAFTNNLIEWVKQRPGQGLEWIGVIHPGSGGSNYNEKFKNKATLTTDKSSSTAYIQLSSLTSDDSAVYFCARRGRDYAMDYWGQGTSVTVSS
VL: EIVLTQSPAIMSASLGEKVTMSCRASSSVNSIYWYQQKSDASPKLWIYYTSNLAPGVPARFSGSGSGNSYSLTIRSMEGEDAATYYCQQFTSSPLTFGAGTKLELK
notes: Tested as chimeric antibody
B3: 97-C10E1-2-P1.z9 (antibody, V domains shown)
VH: QVQLQQSGAEVKKPGASVKVSCKASGYAFTGYTMNWVRQAPGQNLEWIGLSNPYNAGTIYNQKFKGRVTLTVDKSTSTVYMELLSLRSEDTAVYYCARNYYYGSSYAYYYAMDYWGQGTTVTVSS
VL: DAQMTQSPSSLSASVGDRVTITCRSSTGAVTTSNYANWVQQKPGKAFKGLIGGTNNRAPGVPARFSGSLSGTDAALTISSLQPEDFATYFCALWYSNHWVFGGGTKVEIK
B4: 97-C10E1-2-P1.z14 (antibody, V domains shown)
VH: B3 VH with V18M, V20I, V68A, V79A
VL: B3 VL
B5: 97-C10E1-2-P1.z7 (antibody, V domains shown)
VH: B3 VH
VL: EAVVTQSPATLSVSPGERATLSCRSSTGAVTTSNYANWVQEKPGQAFRGLIGGTNNRAPGIPARFSGSLSGDEATLTISSLQSEDFAVYFCALWYSNHWVFGGGTKVEIK
B6: 97-C10E1-2-P1.z12 (antibody, V domains shown)
VH: B3 VH with V18M, V20I, V68A, V79A
VL: B5 VL
B7: 97-C10E1-2-P1.z4 (antibody, V domains shown)
VH: B3 VH with Q5V, N44G, L70M, L84S
VL: B3 VL
B8: 97-C10E1-2-P1.z1 (antibody, V domains shown)
VH: B3 VH with Q5V, N44G, L70M, L84S
VL: B5 VL with V4M, E41Q, F47P, G49L, L69G
B9: 97-C10E1-2-P1.z11 (antibody, V domains shown)
VH: B3 VH with V18M, V20I, V68A, V79A
VL: B5 VL with V4M, E41Q, F47P, G49L, L69G
B10: 85-H10A5 (antibody, V domains shown)
VH: EVQLQQSGPELVKPGASVKISCKTSGYTFTEYPMHWVKQSHEKSLEWIGGINPKNGDANSNQKFKGKATLTVDKSSSTAYMELRSLTSEDSAVYYCARGWLLLFDVWGAGTMVTVSS
VL: DIQMTQSSSSFSVSLGDRVTISCKASEDIYNRLAWYQQKPGNAPRLLISGATSLETGIPSRFSGSGSGKDYTLSITTLQTEDVAAYYCQQYWSSPLTFGAGTKLELR
notes: Tested as chimeric antibody
B11: 23-B2F11 (antibody, V domains shown)
VH: EVQLQQSGPELVKPGASVKISCKTSGYTFTEYTMHWVKQSHGRSLEWIGGINPNNGDTIYNQKFKGKATLTVDKSSSTAYMELRSLTSEDSAVYYCARRGGYGNFNFDYWGQGTTLTVSS
VL: B10 VL with G16R, S22T, I58V, T77S, A85T, L96Y, A100G, L104V, L106I, R107K
notes: Tested as chimeric antibody
B12: 59-A2E6 (antibody, V domains shown)
VH: EVQLQQSGPELVKPGASVKISCKTSGYTFTEYTMHWVKQSHGKSLEWIGGINPKNGGTSYNQKFKGKATLTVDKSSSTVYMEFRSLTTEDSAVYYCARGMLVAFYFDCWGQGTTLTVSS
VL: DIQMTQSPASQSASLGESVTITCLASQTIGTWLAWYQQKPGKSPQLLIYAATSLADGVPSRFSGSGSGTKFSFKISSLQAEDFVSYYCQQLYSTPYTFGGGTKLEIK
notes: Tested as chimeric antibody
B13: 81-H10F8 (antibody, V domains shown)
VH: B12 VH with K54N, S77R, V79A, F83L, T88S, L101V
VL: B12 VL with S53G, S65G, A80V
notes: Tested as chimeric antibody

Key:
human Claudin 6 [1] = target: T1, human Claudin 6; assay: flow cytometry, HEK293/H_CLDN6 cells, Ab titrated from 100 nM
Experimental: (§1) In this example, cell based binding of chimeric Abs on human CLDN6 & CLND9 over-expressing cell line were assessed using flow cytometry.
(§2) Briefly, the cells were incubated with chimeric Abs (from 100 nM, 6-fold dilution, 8 points) for 60 minutes at 4° C. Cells were pelleted and washed twice with 2% FBS/PBS buffer, and stained with fluorescent conjugated secondary antibody at 4° C. for 30 minutes. After that the cells were washed twice and resuspended in 80 μL of 2% FBS/PBS buffer. Fluorescent signal of binding was detected using Agilent. The EC50 was calculated using the GraphPad software (LaJolla, CA).

human Claudin 9 [2] = target: T2, human Claudin 9; assay: flow cytometry, HEK293/H_CLDN9 cells, Ab titrated from 100 nM
Experimental: as §1, §2

human Claudin 3 [3] = target: T3, human Claudin 3; assay: flow cytometry, CHOK1/H_CLDN3 cells, Ab titrated from 100 nM
Experimental: (§3) In this example, cell-based binding of hu Abs on human CLDN3 expressing cells were assessed using flow cytometry.
(§4) Briefly, the CHOK1/H_CLDN3 cells were incubated with hu-Abs (from 100 nM, 6 folds dilution, 8 points). After incubation at 4° C. for 60 minutes. Cells were pelleted and washed twice with 2% FBS/PBS buffer, and stained with fluorescent conjugated secondary antibody at 4° C. for 30 minutes. After that the cells were washed twice and resuspended in 80 μL of 2% FBS/PBS buffer. Fluorescent signal of binding was detected using Agilent. The EC50 was calculated using the GraphPad software.

human Claudin 6 [4] = target: T1, human Claudin 6; assay: flow cytometry, HEK293/H_CLDN6 cells, Ab titrated from 100 nM; remark: listed apart in the source
Experimental: In this example, cell-based binding of humanized antibodies (hu Abs) on human CLDN6 expressing cells were assessed using flow cytometry.
as §4, with “HEK293/H_CLDN6” for “CHOK1/H_CLDN3”

human Claudin 9 [5] = target: T2, human Claudin 9; assay: flow cytometry, HEK293/H_CLDN9 cells, Ab titrated from 100 nM; remark: listed apart in the source
human Claudin 3 [6] = target: T3, human Claudin 3; assay: flow cytometry, CHOK1/H_CLDN3 cells
Experimental: as §3, §4

human Claudin 9 [7] = target: T2, human Claudin 9; assay: flow cytometry, HEK293/H_CLDN9 cells
Experimental: In this example, cell-based binding of z5 toward human CLDN9 engineering expressing cells were assessed using flow cytometry.
as §4, with “2 cell lines” for “the CHOK1/H_CLDN3 cells”, “antibodies” for “hu-Abs”, “points)” for “points). After incubation”

human Claudin 9 [8] = target: T2, human Claudin 9; assay: flow cytometry, HEK293/H_CLDN9 cells, Ab titrated from 100 nM; remark: listed apart in the source
Experimental: In this example, cell-based binding of hu Abs on human CLDN9 expressing cells were assessed using flow cytometry.
as §4, with “HEK293/H_CLDN9” for “CHOK1/H_CLDN3”, “software (LaJolla, CA).” for “software.”

| Binder | Top MFI (human Claudin 6 [1]) | Top MFI (human Claudin 9 [2]) | Top MFI (human Claudin 3 [3]) | Top MFI (human Claudin 6 [4]) | Top MFI (human Claudin 9 [5]) | binding result (human Claudin 3 [6]) | binding result (human Claudin 9 [7]) | Top MFI (human Claudin 9 [8]) |
| --- | --- | --- | --- | --- | --- | --- | --- | --- |
| B1 | 379000 | 341000 |  |  |  |  |  |  |
| B2 | 62100 |  |  |  |  |  |  |  |
| B3 |  |  | 297 | 159000 | 5810 | no binding (tested: 100 nM (highest concentration tested)) |  |  |
| B4 |  |  | 158 | 115000 |  | no binding (tested: 100 nM (highest concentration tested)) | no binding (tested: 100 nM (highest concentration tested)) | 661 |
| B5 |  |  | 249 | 181000 | 1660 | no binding (tested: 100 nM (highest concentration tested)) |  |  |
| B6 |  |  | 130 | 107000 |  | no binding (tested: 100 nM (highest concentration tested)) | no binding (tested: 100 nM (highest concentration tested)) | 149 |
| B7 |  |  | 263 | 185000 | 9160 | no binding (tested: 100 nM (highest concentration tested)) |  |  |
| B8 |  |  | 136 | 45100 |  | no binding (tested: 100 nM (highest concentration tested)) | no binding (tested: 100 nM (highest concentration tested)) | 479 |
| B9 |  |  | 118 | 31000 |  | no binding (tested: 100 nM (highest concentration tested)) | no binding (tested: 100 nM (highest concentration tested)) | 287 |
| B10 | 285000 | 113000 |  |  |  |  |  |  |
| B11 | 117000 | 93300 |  |  |  |  |  |  |
| B12 | 264000 | 102000 |  |  |  |  |  |  |
| B13 | 257000 | 105000 |  |  |  |  |  |  |
